Our source for the Km values is publication PMC6407594.

Substrate in this series: NCCCNCCCCNCCCN
The series is described as follows: purified protein, by the assay type. Conditions: other: compound as substrate, Hepes 50 mM, pH 7.5, 37 °C.

B1: murine SMOX (Mus musculus) (protein)
chain: MQSCESSGDSADDPLSRGLRRRGQPRVVVIGAGLAGLAAARALLEQGFTDVTVLEASSHIGGRVQSVRLGDTTFELGATWIHGSHGNPIYQLAEANGLLEETTDGERSVGRISLYSKNGVACYLTNRGCRIPKDVVEEFSDLYNEVYNMTQEFFRHGKPVNAESQNSVGVFTREKVRNRIRDDPDDTEATKRLKLAMIQQYLKVESCESSSHSIDEVSLSAFGEWTEIPGAHHIIPSGFMRVVELLAEGIPPHVIQLGKPVRCIHWDQASAHPRGPEIEPRGEGDHNHDTGEGGQSGENPQQGRWDEDEPWPVVVECEDCEVIPADHVIVTVSLGVLKRQYTSFFRPCLPTEKVAAIHRLGIGTTDKIFLEFEEPFWGPECNSLQFVWEDEAESCTLTYPPELWYRKICGFDVLYPPERYGHVLSGWICGEEALVMERCDDEAVAEICTEMLRQFTGNPNIPKPRRILRSAWGSNPYFRGSYSYTQVGSSGADVEKLAKPLPYTESSKTAPMQVLFSGEATHRKYYSTTHGALLSGQREAARLIEMYRDLFQQGP
In the case of B1, the Km (commonly the substrate concentration at which the rate is half of its maximum) came to 495 µM.
